# In EP1908827A2:
# How the values were obtained:
# [1] = molecular target: PP1c (type-1 protein phosphatase catalytic subunit, PP1c alpha); test: PP1c pull-down from extracts of cardiomyocytes co-infected with Ad-I-1 and AdPKCα dn, I-1 western blot quantified
# [2] = molecular target: PP1c (type-1 protein phosphatase catalytic subunit, PP1c alpha); test: PP1c pull-down from extracts of cardiomyocytes co-infected with Ad-I-1 and AdPKCα wt, I-1 western blot quantified
substance,measurement,setting,value
"Inhibitor-1 (I-1), expressed from adenovirus in neonatal rat cardiomyocyte cultures","change in I-1 co-precipitated with PP1c (dominant negative PKCα co-expressed, against I-1 + β-gal)",[1],> 70 % increase
same,"change in I-1 co-precipitated with PP1c (wildtype PKCα co-expressed, against I-1 + β-gal)",[2],50 % reduction
